Molecular target: T1, DLL4 (DLL ECD His tag, R&D 1506-D4-050) (UniProt Q9NR61 27-529)
T1 construct: extracellular domain; bought
Assay: BIACORE (SPR), DVD-Ig against DLL4

Binder | Kd [nM] | koff [s⁻¹] | kon [M⁻¹ s⁻¹]
DVD515 (bispecific antibody, human IgG1, kappa, DVD-Ig; N-term; VD DLL4 (AB073), C-term; VD VEGF (AB071); HC linker short, LC linker short; also called DVD-Ig DVD515; DVD515H) heavy: not shown light: QAVVTQESALTTSPGETVTLTCRSSTGAVTTSNYANWVQEKPDHLFTGLIGGTNNRAPGVPARFSGSLIGDKAALTITGAQTEDEAIYFCALWYSNHWVFGGGTKLTVLGQPKAAPDIQMTQSPSSLSASVGDRVTITCRASQVIRRSLAWYQQKPGKAPKLLIYAASNLASGVPSRFSGSGSGTDFTLTISSLQPEDFATYYCQQSNTSPLTFGQGTKVEIKRTVAAPSVFIFPPSDEQLKSGTASVVCLLNNFYPREAKVQWKVDNALQSGNSQESVTEQDSKDSTYSLSSTLTLSKADYEKHKVYACEVTHQGLSSPVTKSFNRGEC | 1.51 | 0.0016 | 1.06e+06
DVD527 (bispecific antibody, human IgG1, kappa, DVD-Ig; N-term; VD DLL4 (AB073), C-term; VD VEGF (AB071); HC linker long, LC linker short; also called DVD-Ig DVD527; DVD527H) heavy: not shown light: QAVVTQESALTTSPGETVTLTCRSSTGAVTTSNYANWVQEKPDHLFTGLIGGTNNRAPGVPARFSGSLIGDKAALTITGAQTEDEAIYFCALWYSNHWVFGGGTKLTVLGQPKAAPDIQMTQSPSSLSASVGDRVTITCRASQVIRRSLAWYQQKPGKAPKLLIYAASNLASGVPSRFSGSGSGTDFTLTISSLQPEDFATYYCQQSNTSPLTFGQGTKVEIKRTVAAPSVFIFPPSDEQLKSGTASVVCLLNNFYPREAKVQWKVDNALQSGNSQESVTEQDSKDSTYSLSSTLTLSKADYEKHKVYACEVTHQGLSSPVTKSFNRGEC | 1.9 | 0.00109 | 574000
DVD521 (bispecific antibody, human IgG1, kappa, lambda, L234A L235A, DVD-Ig; N-term; VD DLL4 (AB073), C-term; VD VEGF (AB071); HC linker long, LC linker long; also called DVD-Ig DVD521; DVD521H) heavy: not shown light: QAVVTQESALTTSPGETVTLTCRSSTGAVTTSNYANWVQEKPDHLFTGLIGGTNNRAPGVPARFSGSLIGDKAALTITGAQTEDEAIYFCALWYSNHWVFGGGTKLTVLGQPKAAPSVTLFPPDIQMTQSPSSLSASVGDRVTITCRASQVIRRSLAWYQQKPGKAPKLLIYAASNLASGVPSRFSGSGSGTDFTLTISSLQPEDFATYYCQQSNTSPLTFGQGTKVEIKRTVAAPSVFIFPPSDEQLKSGTASVVCLLNNFYPREAKVQWKVDNALQSGNSQESVTEQDSKDSTYSLSSTLTLSKADYEKHKVYACEVTHQGLSSPVTKSFNRGEC | 1.77 | 0.00168 | 947000
DVD533 (bispecific antibody, human IgG1, kappa, lambda, L234A L235A, DVD-Ig; N-term; VD DLL4 (AB073), C-term; VD VEGF (AB071); HC linker short, LC linker long; also called DVD-Ig DVD533; DVD533H) heavy: not shown light: QAVVTQESALTTSPGETVTLTCRSSTGAVTTSNYANWVQEKPDHLFTGLIGGTNNRAPGVPARFSGSLIGDKAALTITGAQTEDEAIYFCALWYSNHWVFGGGTKLTVLGQPKAAPSVTLFPPDIQMTQSPSSLSASVGDRVTITCRASQVIRRSLAWYQQKPGKAPKLLIYAASNLASGVPSRFSGSGSGTDFTLTISSLQPEDFATYYCQQSNTSPLTFGQGTKVEIKRTVAAPSVFIFPPSDEQLKSGTASVVCLLNNFYPREAKVQWKVDNALQSGNSQESVTEQDSKDSTYSLSSTLTLSKADYEKHKVYACEVTHQGLSSPVTKSFNRGEC | 2.22 | 0.00133 | 598000
DVD497 (bispecific antibody, human IgG1, kappa, DVD-Ig; N-term; VD DLL4 (AB072), C-term; VD VEGF (AB071); HC linker long, LC linker long; also called DVD-Ig DVD497; DVD497H) heavy: not shown light: DIQMTQSSSYLSVSLGGRVTITCKASDHINNWLAWYQQKPGNAPRLLISGATSLETGVPSRFSGSGSGKDYTLSITSLQTEDVATYYCQQYWSIPLTFGAGTKLELKRTVAAPSVFIFPPDIQMTQSPSSLSASVGDRVTITCRASQVIRRSLAWYQQKPGKAPKLLIYAASNLASGVPSRFSGSGSGTDFTLTISSLQPEDFATYYCQQSNTSPLTFGQGTKVEIKRTVAAPSVFIFPPSDEQLKSGTASVVCLLNNFYPREAKVQWKVDNALQSGNSQESVTEQDSKDSTYSLSSTLTLSKADYEKHKVYACEVTHQGLSSPVTKSFNRGEC | 0.266 | 7.12e-05 | 268000

Now those with a lower Kd, led by results:

Kd [nM] | koff [s⁻¹] | kon [M⁻¹ s⁻¹] | Binder
0.153 | 3.52e-05 | 230000 | DVD509 (bispecific antibody, human IgG1, kappa, DVD-Ig; N-term; VD DLL4 (AB072), C-term; VD VEGF (AB071); HC linker short, LC linker long; also called DVD-Ig DVD509; DVD509H) heavy: not shown light: DIQMTQSSSYLSVSLGGRVTITCKASDHINNWLAWYQQKPGNAPRLLISGATSLETGVPSRFSGSGSGKDYTLSITSLQTEDVATYYCQQYWSIPLTFGAGTKLELKRTVAAPSVFIFPPDIQMTQSPSSLSASVGDRVTITCRASQVIRRSLAWYQQKPGKAPKLLIYAASNLASGVPSRFSGSGSGTDFTLTISSLQPEDFATYYCQQSNTSPLTFGQGTKVEIKRTVAAPSVFIFPPSDEQLKSGTASVVCLLNNFYPREAKVQWKVDNALQSGNSQESVTEQDSKDSTYSLSSTLTLSKADYEKHKVYACEVTHQGLSSPVTKSFNRGEC
0.237 | 6.35e-05 | 267000 | DVD491 (bispecific antibody, human IgG1, kappa, DVD-Ig; N-term; VD DLL4 (AB072), C-term; VD VEGF (AB071); HC linker short, LC linker short; also called DVD-Ig DVD491; DVD491H) heavy: not shown light: DIQMTQSSSYLSVSLGGRVTITCKASDHINNWLAWYQQKPGNAPRLLISGATSLETGVPSRFSGSGSGKDYTLSITSLQTEDVATYYCQQYWSIPLTFGAGTKLELKRTVAAPDIQMTQSPSSLSASVGDRVTITCRASQVIRRSLAWYQQKPGKAPKLLIYAASNLASGVPSRFSGSGSGTDFTLTISSLQPEDFATYYCQQSNTSPLTFGQGTKVEIKRTVAAPSVFIFPPSDEQLKSGTASVVCLLNNFYPREAKVQWKVDNALQSGNSQESVTEQDSKDSTYSLSSTLTLSKADYEKHKVYACEVTHQGLSSPVTKSFNRGEC
0.192 | 4.72e-05 | 246000 | DVD503 (bispecific antibody, human IgG1, kappa, DVD-Ig; N-term; VD DLL4 (AB072), C-term; VD VEGF (AB071); HC linker long, LC linker short; also called DVD-Ig DVD503; DVD503H) heavy: not shown light: DIQMTQSSSYLSVSLGGRVTITCKASDHINNWLAWYQQKPGNAPRLLISGATSLETGVPSRFSGSGSGKDYTLSITSLQTEDVATYYCQQYWSIPLTFGAGTKLELKRTVAAPDIQMTQSPSSLSASVGDRVTITCRASQVIRRSLAWYQQKPGKAPKLLIYAASNLASGVPSRFSGSGSGTDFTLTISSLQPEDFATYYCQQSNTSPLTFGQGTKVEIKRTVAAPSVFIFPPSDEQLKSGTASVVCLLNNFYPREAKVQWKVDNALQSGNSQESVTEQDSKDSTYSLSSTLTLSKADYEKHKVYACEVTHQGLSSPVTKSFNRGEC
